Results as given in the DeepSol protein solubility set.

Test: soluble on expression in E. coli; label from the status in PepcDB or PDB records
For “MGSDKIHHHHHHMGDLSDIRVFLAVAQQRSFTAAARQLSMTPPTVTRSVSALEQSLGVQLLLRTTRQVSLTSAGAVYAARVEPLIRQFDQVRDDLREEQGDVAGLIRINAPLSLGQQLLPDIVSGFRAEHPQVSVSLSLTDRFIDIVSERFDLALRVSEAPRDRSTIWRKVCRVRRILVASPGYLAIFGTPETPDDLSRHGCIAYDEEAISETWELTNGGRTRKALAGKVLAANNGELIAKLVEDGQGLALLPHFIVGDALASARRAEAGPCRVGASGALADIVLSALRETADARCEILGLLRKICYPYAPAVKKRRTQVLFSRRKASFPAKGEHMLQEFDDALRHASFESDLNGLYAALLLSRSFGSSESRIRSLGRSLPDLSQQKSRFVWRRE”, the “soluble on expression in E. coli” value was “not soluble”. For “MAHHHHHHMDPPAAFERRYPELGALRLHFDVLDSTQLYCKRNMARLLQNGSLQDDKHMVVVTCNEQTNGIGTRDTKKKQDRMWLSERGNLFTTFVLLWKREDLEKVKYLSQTSTVAVSKTLEHFHLVTQIKWVNDVLVNEKKIAGCLVHLHYLDDFPSLSRYACVMVGIGINITLRDKDNLLGDNYTSVQKELQRDFGSFCSIPSVEDVMDKLILNLHAVFTKLREEGFSSFLDYITPRLLYKDRNVLVDTDGELIAGHLQGLLHDGSLLLLRGENELVRVNTGHLRLG”, the “soluble on expression in E. coli” value was “soluble”. With “MALTFTQAVSKLTSKFPHLNLVEFNGVRYPTVIVCPIHGRVTCSTFKSMLDSKSGCPKCASYGVNSHKIPEDTIDKLSKNTVLEDTVTGETLTFPSRASAARSLGINPAAITDRIKGRVHTETLLAGRYKVHICTK” the “soluble on expression in E. coli” value was “not soluble”. With “MKFIHLTDIHLMPPGQSVSGSDPIEKLSKVFEDIATWHSDAEFCVVSGDLADLGDRESYEWLRQRLAHFPVPVFLMLGNHDVRETFISVFPDHPRDANGFIQHAHTAGGARFLFLDTLTGGPDIHDGELCNDRLAWFAAELERAGDMPVYVFLHHPPFDIAIPYVDEIKLRQPDAFHAALQAGRNIRHIFYGHVHRTTYVNWRGYPFTSLPSTNHQVPLIPEREGQEHSAEPLAYGVATIEGDQFTLHVDHYLGK” the “soluble on expression in E. coli” value was “not soluble”. In the case of “MDLVKDVKRELSFSELKGKRVSIDGYNALYQFLAAIRQPDGTPLMDSQGRVTSHLSGLFYRTINILEEGVIPIYVFDGKPPEQKSEELERRRKAKEEAERKLERAKSEGKIEELRKYSQAILRLSNIMVEESKKLLRAMGIPIVQAPSEGEAEAAYLNKLGLSWAAASQDYDAILFGAKRLVRNLTITGKRKLPNKDVYVEIKPELIETEILLKKLGITREQLIDIGILIGTDYNPDGIRGIGPERALKIIKKYGKIEKAMEYGEISKKDINFNIDEIRGLFLNPQVVKPEEALDLNEPNGEDIINILVYEHNFSEERVKNGIERLTKAIKEAKGASRQTGLDRWF”, the “soluble on expression in E. coli” value is reported as “soluble”. For “MSLAIPTRNEVSDDLKWDLSRVFKDDQEWEQEYNRVAIEIKNLGRFKGNLAKSGQDLYEGITEILSVNRRLEKVYVYATMSSDVDTSNTHYLGLVAKAQSLANQMSAAISFVDPEILSIPEETLAKFMQDEPRLKEYQHRLEQITKKRPHTLPASEEKIIAAAGDAMGTSANTFNVLTNSDMEYGYVQDEDGEMVQLSDGLYSLLIQSQDRNVRKNAFDVMYASYGQFENSLASTLSGEVKAHNFNAQVHKYNSAREAALSENGVPTAVYDTLVKEVNSHLNLLHRYVSLRKKILGLSDLQMYDMYVPLTGEPSLSYNFEEAKNEARRALAPLGKDYLEHVDYIFNNRVIDVVESQNKVTGAYSGGSYDTDPYELLNWEDNLDSLYTLVHETGHSVHSWYTRNTQPYVYGDYPIFVAEIASTTNENILTEYFLDKITDPKTRAFVLNHYLDSFKGTLFRQTQFAEFEQFIHEADANGQPLTADVLDEFYGNLNQRYYGDSVEPGGEIAKEWARIPHFYYNFYVYQYATGFAAATALANNVVHGTDKERTAYINFLKAGSSDYPTEIMKRAGVDMTKADYLKDAFNTFEERLNEFEKIVDELKTEGHHHHHH”, the “soluble on expression in E. coli” value was “soluble”. For “GMSDEQHDSVWPPPGLDFSKPTIARVYDALLGGKDNFEADRALADYACKHIPGLKESAIENRKVLVRGVRFLAGEAGISQFLDLGSGLPTVQNTHEVAQSVNPDARVVYVDIDPMVLTHGRALLAKDPNTAVFTADVRDPEYILNHPDVRRMIDFSRPAAIMLVGMLHYLSPDVVDRVVGAYRDALAPGSYLFMTSLVDTGLPAQQKLARITRENLGEGWARTPEEIERQFGDFELVEPGVVYTALWRPDEPVDPDNLSPGEQLGMAGIGRKKA”, the “soluble on expression in E. coli” value was “soluble”. With “MSLEGTQMLATNKKCWDTVAPYFFQVDCLPKYGPYTASEDEIRLFDSIRKKKVLDIGCGSGHSLQYMAEQGAEELWGLDLSSTQIEIANKTLKDWNPKLVCGAMEEEGDIPKGYFDIVYSIYALGWTSDLRKTLELIYSYVKPGGSFIFSWEHPVYSNLQYGTEEVAIKSSYHEETPITFETFKGENVQATLHKRKISTYINELNRAGFKIERIEEPEPSSSLDGELAEPSTKYYSLYKARMVPTTFIIKARKEGHHHHHH” the “soluble on expression in E. coli” value was “soluble”. With “MSLPREKVVRVWDEREVVYSPKRWRILWEKREKALKIMELLKDFDPHVYGSVARGDVRRDSDIDIVIPYRVPSYLIELALGDLIQRRRIVMATPWHLIKGHIEIDEETTVTFFLVDPTDRELEFYKWGGMLDLWGVKTKQRVPGVNKKLILIIPTDKGHIEREVVGREAEVAKILGVSVDIVEERVKVLTRRDRIGRTGIYLDEEVPDWKSFEEFLKELADRDPNIRRRVRESLEGHHHHHH” the “soluble on expression in E. coli” value was “not soluble”. For “MALKTAVHEKIMNDVVLAVKKNAEWKVLIVDQLSMRMVSACCKMHEIMSEGITLVEDINRRREPLPLLEAVYLITPTEESVKCLMADFQNPDNPQYRGAHIFFTEACPEELFKELCKSTTARFIKTLKEINIAFLPYESQIFSLDSPDTFQVYYNPSRAQGGIPNKERCAEQIATLCATLGEYPSVRYRSDFDENASFAQLVQQKLDAYRADDPTMGEGPQKDRSQLLILDRGFDPISPLLHELTFQAMAYDLLPIENDVYKYVNTGGNEVPEKEVLLDEKDDLWVEMRHQHIAVVSQNVTKKLKQFADEKRMGTAADKAGIKDLSQMLKKMPQYQKELSKYSTHLHLAEDCMKQYQQHVDKLCKVEQDLAMGTDADGEKIRDHMRNIVPILLDQKISAYDKIRIILLYIIHKGGISEENLAKLVQHAHIPAEEKWIINDMQNLGVPIIQDGGRRKIPQPYHTHNRKERQADHTYQMSRWTPYMKDIMEAAVEDKLDTRHYPFLNGGGPRPSCQQPVSVRYGHWHKDKGQASYKSGPRLIIFVVGGISYSEMRSAYEVTQTAKNNWEVILGSTHILTPEGLLRDLRKISNP”, the “soluble on expression in E. coli” value was “soluble”. For “MIESKTYAVLGLGNGGHAFAAYLALKGQSVLAWDIDAQRIKEIQDRGAIIAEGPGLAGTAHPDLLTSDIGLAVKDADVILIVVPAIHHASIAANIASYISEGQLIILNPGATGGALEFRKILRENGAPEVTIGETSSMLFTCRSERPGQVTVNAIKGAMDFACLPAAKAGWALEQIGSVLPQYVAVENVLHTSLTNVNAVMHPLPTLLNAARCESGTPFQYYLEGITPSVGSLAEKVDAERIAIAKAFDLNVPSVCEWYKESYGQSPATIYEAVQGNPAYRGIAGPINLNTRYFFEDVSTGLVPLSELGRAVNVPTPLIDAVLDLISSLIDTDFRKEGRTLEKLGLSGLTAAGIRSAVE”, the “soluble on expression in E. coli” value was “soluble”. With “MAHHHHHHMQVTETVLARAVIKRRSPQLWGAPGAPIIRMRGHHVVWKFQSYDLVVEHTHKRRNSDIRLLHYLGKHCPHPQKSLWSPDTPVAQDRHLFMLTTVDIDAFKYWFGVKRCRLSMKPWALLAKAGLLPPSLTQNSKIMPKPLFDKESLMRYYLANRKDEDVMAREKYLNYENSMVKTEEERAAERPVAPYL” the “soluble on expression in E. coli” value was “soluble”. In the case of “MGSDKIHHHHHHMNDLLPFLAQVSLFKGIETEELPKMLNRLNARKVSYKKNDVILREGQSVHSVGIMLSGKVKVVKEDFKGNTNVMTFIEPGAMFAEAYACTQTANLPFTVLSVMETKILWIDYRKIISTCTSACESHEKLIENMMKALASKSILLNQKIEHISKRTTQEKLLTYLFDQSKKSGSNEFEIPFSRQELADYLCVDRSAMSNELCKLQREGVLNFHLNHFKLSKSSSEAQL”, the “soluble on expression in E. coli” value is reported as “not soluble”. With “ENSHNKARTSPYPGSKVERSQVPNEKVGWLVEWQDYKPVEYTAVSVLAGPRWADPQISESNFSPKFNEKDGHVERKSKNGLYEIENGRPRNPAGRTGLVGRGLLGRWGPNHAADPIITRWKRDSSGNKIMHPVSGKHILQFVAIKRKDCGEWAIPGGMVDPGEKISATLKREFGEEALNSLQKTSAEKREIEEKLHKLFSQDHLVIYKGYVDDPRNTDNAWMETEAVNYHDETGEIMDNLMLEAGDDAGKVKWVDINDKLKLYASHSQFIKLVAEKRDAHWSEDSEADCHAL” the “soluble on expression in E. coli” value was “soluble”. In the case of “MGSDKIHHHHHHMRKAGESMKEFISLKIDYAFKLIFGKEGNEAILIAFLNAALKLPQERRIEAITIMNPELNKEYQGDKKSILDVRAETSEGMQINIEIQLSNQYDMEKRSLYYWAEMYSRQIREGMAYKELAKAVTINILDFNYLKQTSNYHNVFHLYEDEEKFQLTDALEMHFMELPKLLAKWRNREISPWENELVRWLLLLEGADNQEILQTLEEIAMKDPVLHQAMTAWEETSDDPRIREAYFDRRKAVLDEKAAIREAELRLKEALEKGRAAGIAAGKAEGKAEVAKKLLDLGFEITKVAEATGLSEKDIRSLKD”, the “soluble on expression in E. coli” value is reported as “not soluble”. In the case of “MGSDKIHHHHHHMKKVLVIRNDKLGDFMLAWPAFAMLKASDPSLKLTALVPTYTAEIARACPYLDEVIIDVPKGDKAAFQRLVNDIKAQRFDAMISFFSNTHNAKLAWKCRIPYRLAPATKWVQFFYNHRLVQRRSQSAKPEFAYNLDLARRFLQDQSIAVVEPRPPYLSFPKSAVDFQREFLCLQLNVDSSKKWIFVHSGSGGSANNLSLAQYAALIRGLLAQFDAYVILTAGPNESEKAHELAGLVQDARVVVYDKNKGLVDFAQSLACADLFIAGSTGPLHLSGALNVPTIGFYPSRRSATPLRWQPINDEAKHLAFCPSNDKASQTDLSKISIEEKLAKMIRFITKVWHAADK”, the “soluble on expression in E. coli” value is reported as “not soluble”. In the case of “MMNPLIIKLGGVLLDSEEALERLFSALVNYRESHQRPLVIVHGGGCVVDELMKGLNLPVKKKNGLRVTPADQIDIITGALAGTANKTLLAWAKKHQIAAVGLFLGDGDSVKVTQLDEELGHVGLAQPGSPKLINSLLENGYLPVVSSIGVTDEGQLMNVNADQAATALAATLGADLILLSDVSGILDGKGQRIAEMTAAKAEQLIEQGIITDGMIVKVNAALDAARTLGRPVDIASWRHAEQLPALFNGMPMGTRILA”, the “soluble on expression in E. coli” value is reported as “soluble”. For “MDMKHTLLEALGIEIVENTAERCVAVMPVDHRTVQPFGYLHGGASVALAETAARPGAQNLIDHTTQACVGLEINANHLKSVKEGTVKAIAEPVHIGRTTIVYHIHIYDEQERLICISRCTLAVIKKLEHHHHHH”, the “soluble on expression in E. coli” value was “soluble”. For “GSHMDYNKRSSVSTVPNAAPIRVGFVGLNAAKGWAIKTHYPAILQLSSQFQITALYSPKIETSIATIQRLKLSNATAFPTLESFASSSTIDMIVIAIQVASHYEVVMPLLEFSKNNPNLKYLFVEWALACSLDQAESIYKAAAERGVQTIISLQGRKSPYILRAKELISQGYIGDINSIEIAGNGGWYGYERPVKSPKYIYEIGNGVDLVTTTFGHTIDILQYMTSSYFSRINAMVFNNIPEQELIDERGNRLGQRVPKTVPDHLLFQGTLLNGNVPVSCSFKGGKPTKKFTKNLVIDIHGTKGDLKLEGDAGFAEISNLVLYYSGTRANDFPLANGQQAPLDPGYDAGKEIMKVYHLRNYNAIVGNIHRLYQSISDFHFNTKKIPELPSQFVMQGFDFEGFPTLMDALILHRLIESVYKSNMMGSTLNVSNISHYSL”, the “soluble on expression in E. coli” value was “soluble”. In the case of “MGHHHHHHGGHMSLPKQIDHEKRRKQIAEATWRVILERGMEGASARNIAKEAGLSLGALRHYFSTQDELLAFAMKLVQEKVTDRIKDIAVRDLLPKEKVLQILLEMVPTNEETIREMEVWFAFTAYARHKKDMFDASHDGIFSGMRNLIAYLDESDLLKQNADKDIEAERLYALVDGLALHAMLDPVRVNKDRIKRVIMQHVESICVEDTRETQKRHPEGGS”, the “soluble on expression in E. coli” value is reported as “soluble”.
